Assay results: patent publication US20190153103A1
Changes are numbered by the printed parent chain.

B1: SC91.149 (antibody, V domains shown)
VH: QVQLLQPGAELVKPGSSVKVSCKASGYTFTNYWMQWVKQRPGQGLEWIGEIDPSDTYTLYNQKFKGKATLTVDTSSSTAYMQLSSLTSEDSAVYYCARFGYYVDYWGQGTTLTVSS
VL: DVVMTQTPLSLPVSLGDQASISCRSSQSLVHSTGNTYFHWYLQKPGQSPELLIYKVSNRFSGVPDRFRGSGSGTDFTLKISRVEAEDLGVYFCSQSTHVPFTFGSGTKLEIK
B2: SC91.172 (antibody, V domains shown)
VH: B1 VH with L5Q, E10D, S16T, V20L, N31S, L59M
VL: B1 VL with F38L, P45A, E50K, R68S
B3: SC91.187 (antibody, V domains shown)
VH: B1 VH with L5Q, A9P, L11F, S16A, V20L, N31S, M34V, T56N, K63N, Y101F
VL: B1 VL with D17E, F38L, E50K, R68S
B4: SC91.111 (antibody, V domains shown)
VH: QIQLVQSGPELKKPGETVKISCKASGYTLTTYGMNWVKQAPGKGLKWMGWINTYSGVPAYADDFKGRFAFSLETSASTAYLQINNFKNEDTATYFCARSELRNWYFDVWGTGTTVTVSS
VL: SFVMTQTPKFLLVSAGDRVTITCKASQNMGHNVAWYQQKPGQSPKLLIYYASNRYTGVPDRFTGSGYGTDFTFTISTVQAEDLAVYFCQQDYSSPFTFGSGTKLEIK
B5: SC91.155 (antibody, V domains shown)
VH: B4 VH with L29F, T53S, S75F, F86L, K87R, N88D
VL: B4 VL with M29L, H31N, N32D, K45R, Y50F
B6: SC91.160 (antibody, V domains shown)
VH: B4 VH with L29F, A59S, Y60S, Q82L, F86L
VL: B4 VL with N32D, Y50S, I106M

These binders were tested against recombinant human BMPR-1A/ALK-3-Fc Chimera (R&D systems Catalog: 315-BR) (human) (UniProt P36894) (assay: ELISA).
recombinant human BMPR-1A/ALK-3-Fc Chimera (R&D systems Catalog: 315-BR) (human), sequence (P36894 24-152 limits assumed, change not shown): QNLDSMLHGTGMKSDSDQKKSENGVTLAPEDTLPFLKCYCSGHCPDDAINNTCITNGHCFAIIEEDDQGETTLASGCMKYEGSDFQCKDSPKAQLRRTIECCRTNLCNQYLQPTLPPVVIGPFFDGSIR

ELISA	Binder
0.066	B1
0.062	B2
0.092	B3
0.077	B4
0.059	B5
0.061	B6
